The text below walks through data of PMC12350170 (2025).

In assay [1] the target is T1, MBP-PHAX103–196 (wild type) (human, UniProt Q9H814 103-196).
T1 chain: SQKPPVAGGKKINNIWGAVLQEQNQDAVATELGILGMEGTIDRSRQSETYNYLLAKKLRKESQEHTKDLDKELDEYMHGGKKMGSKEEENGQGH
The assay can be described thus: ITC; CBC bound to m7GpppG. For orientation: ITC needs no label: the signal is the heat of the interaction.

Assay [2] addresses MBP-PHAX103–196 R147E, Y152E, Y154E (human, UniProt Q9H814 103-196, R147E | Y152E | Y154E). The assay can be described thus: ITC; CBC bound to m7GpppG.
Assay [3] concerns the target T1, MBP-PHAX103–196 (wild type). The assay can be described thus: ITC.

B1: Human nuclear cap-binding complex (CBC): CBP80ΔNLS with CBP20 (complex)
chain 1: KTSDANETEDHLESLICKVGEKSACSLESNLEGLAGVLEADLPNYKSKILRLLCTVARLLPEKLTIYTTLVGLLNARNYNFGGEFVEAMIRQLKESLKANNYNEAVYLVRFLSDLVNCHVIAAPSMVAMFENFVSVTQEEDVPQVRRDWYVYAFLSSLPWVGKELYEKKDAEMDRIFANTESYLKRRQKTHVPMLQVWTADKPHPQEEYLDCLWAQIQKLKKDRWQERHILRPYLAFDSILCEALQHNLPPFTPPPHTEDSVYPMPRVIFRMFDYTDDPEGPVMPGSHSVERFVIEENLHCIIKSHWKERKTCAAQLVSYPGKNKIPLNYHIVEVIFAELFQLPAPPHIDVMYTTLLIELCKLQPGSLPQVLAQATEMLYMRLDTMNTTCVDRFINWFSHHLSNFQFRWSWEDWSDCLSQDPESPKPKFVREVLEKCMRLSYHQRILDIVPPTFSALCPANPTCIYKYGDESSNSLPGHSVALCLAVAFKSKATNDEIFSILKDVPNPNQDDDDDEGFSFNPLKIEVFVQTLLHLAAKSFSHSFSALAKFHEVFKTLAESDEGKLHVLRVMFEVWRNHPQMIAVLVDKMIRTQIVDCAAVANWIFSSELSRDFTRLFVWEILHSTIRKMNKHVLKIQKELEEAKEKLARQHKRRSDDDDRSSDRKDGVLEEQIERLQEKVESAQSEQKNLFLVIFQRFIMILTEHLVRCETDGTSVLTPWYKNCIERLQQIFLQHHQIIQQYMVTLENLLFTAELDPHILAVFQQFCALQA
chain 2: MSGGLLKALRSDSYVELSQYRDQHFRGDNEEQEKLLKKSCTLYVGNLSFYTTEEQIYELFSKSGDIKKIIMGLDKMKKTACGFCFVEYYSRADAENAMRYINGTRLDDRIIRTDWDAGFKEGRQYGRGRSGGQVRDEYRQDYDAGRGGYGKLAQNQ
For the molecule B1, the values for the Kd in assay [1], in assay [2] and in assay [3] were 1.45 µM, 1.97 µM and 1.86 µM, respectively.

As a reminder, the Kd is the free concentration of one partner at which half of the binding sites on the other are occupied at equilibrium, for simple one-to-one binding. Higher therefore signals weaker binding.
